Biological target: T1, CD3 on HBP-ALL (CD3+) cells (UniProt P07766 23-207)
T1 construct: whole, on cells; CD3 is a multi-chain complex
Assay: live cell ELISA on HBP-ALL (CD3+) cells
Procedure: These variants were tested for their ability to bind to cells expressing the target antigen using a live cell ELISA binding assay using filter plates and wash steps carried out using a vacuum manifold (method developed by Anne Marcil at the National Research Council, Montreal, Canada). The method was carried out as follows. Cells were maintained in exponential growth phase and then washed, counted and distributed at 10E5 cells per well in 50% medium, 50% blocking buffer. Dilutions of variants in blocking buffer were added to the cells and incubated for 1 hour at 4° C. After collection and four washes in medium, an HRP-conjugated goat anti-human IgG was added to cells which were incubated for 1 hour at 4° C. After collection and four washes in medium and 3 washes in PBS, TMB substrate was added to cells which were incubated for 25 minutes at room temperature. The reaction was stopped by addition of H₂SO4 and OD read at 450 nm. The ELISA results are depicted in Tables 17 and 18. A, B, and C refer to the ratio of Chain A to Chain B used in expression of the variant: Ratio A=Chain A/Chain B=1:1 A/B=50%/50%; Ratio B=Chain A/Chain B=2:1 A/B=66%/34%; Ratio C=Chain A/Chain B=1:2 A/B=34%/66%.

B1: MOR208-CD19 FSA, variant 2176 (antibody, V domains shown)
VH: EVQLVESGGGLVKPGGSLKLSCAASGYTFTSYVMHWVRQAPGKGLEWIGYINPYNDGTKYNEKFQGRVTISSDKSISTAYMELSSLRSEDTAMYYCARGTYYYGTRVFDYWGQGTLVTVSS
VL: DIVMTQSPATLSLSPGERATLSCRSSKSLQNVNGNTYLYWFQQKPGQSPQLLIYRMSNLNSGVPDRFSGSGSGTEFTLTISSLEPEDFAVYYCMQHLEYPITFGAGTKLEIK
notes: Control; also called 2176 A; anti-CD19 warhead from MOR208
binding result: no binding (tested: OD450 = or < negative control 1041)
